Test results as given in patent publication US20230144608.

T1: IVGRPRHQGV (SEQ ID NO: 7)
T1 chain: IVGRPRHQGV

T2: RPLALWRS (SEQ ID NO: 3)
T2 chain: RPLALWRS

T3: RSKYLATA (SEQ ID NO: 8)
T3 chain: RSKYLATA

T4: APAGLIVPYN (SEQ ID NO: 5)
T4 chain: APAGLIVPYN

T5: PVSLRSGS (SEQ ID NO: 1)
T5 chain: PVSLRSGS

T6: PANLVAPDP (SEQ ID NO: 6)
T6 chain: PANLVAPDP

T7: TQKPLGLS (SEQ ID NO: 4)
T7 chain: TQKPLGLS


Columns and labels:
[1] = biological target: T1, IVGRPRHQGV (SEQ ID NO: 7)
[2] = biological target: T2, RPLALWRS (SEQ ID NO: 3)
[3] = biological target: T3, RSKYLATA (SEQ ID NO: 8)
[4] = biological target: T4, APAGLIVPYN (SEQ ID NO: 5)
[5] = biological target: T5, PVSLRSGS (SEQ ID NO: 1)
[6] = biological target: T6, PANLVAPDP (SEQ ID NO: 6)
[7] = biological target: T7, TQKPLGLS (SEQ ID NO: 4)

| Protein | initial rate of cleavage by recombinant protease [1] | initial rate of cleavage by recombinant protease [2] | initial rate of cleavage by recombinant protease [3] | initial rate of cleavage by recombinant protease [4] | initial rate of cleavage by recombinant protease [5] | initial rate of cleavage by recombinant protease [6] | initial rate of cleavage by recombinant protease [7] |
| --- | --- | --- | --- | --- | --- | --- | --- |
| MMP-2 (protein) YNFFPRKPKWDKNQITYRIIGYTPDLDPETVDDAFARAFQVWSDVTPLRFSRIHDGEADIMINFGRWEHGDGYPFDGKDGLLAHAFAPGTGVGGDSHFDDDELWTLGEGQVVRVKYGNADGEYCKFPFLFNGKEYNSCTDTGRSDGFLWCSTTYNFEKDGKYGFCPHEALFTMGGNAEGQPCKFPFRFQGTSYDSCTTEGRTDGYRWCGTTEDYDRDKKYGFCPETAMSTVGGNSEGAPCVFPFTFLGNKYESCTSAGRSDGKMWCATTANYDDDRKWGFCPDQGYSLFLVAAHEFGHAMGLEHSQDPGALMAPIYTYTKNFRLSQDDIKGIQELYGASPDIDLGTGPTPTLGPVTPEICKQDIVFDGIAQIRGEIFFFKDRFIWRTVTPRDKPMGPLLVATFWPELPEKIDAVYEAPQEEKAVFFAGNEYWIYSASTLERGYPKPLTSLGLPPDVQRVDAAFNWSKNKKTYIFAGDKFWRYNEVKKKMDPGFPKLIADAWNAIPDNLDAVVDLQGGGHSYFFKGAYYLKLENQSLKSVKFGSIKSDWLGC | 0 µM/h | 1.1 µM/h | 0 µM/h | 29.6 µM/h | 1.9 µM/h | 31.2 µM/h | 11.8 µM/h |
| MMP-7 (protein) YSLFPNSPKWTSKVVTYRIVSYTRDLPHITVDRLVSKALNMWGKEIPLHFRKVVWGTADIMIGFARGAHGDSYPFDGPGNTLAHAFAPGTGLGGDAHFDEDERWTDGSSLGINFLYAATHELGHSLGMGHSSDPNAVMYPTYGNGDPQNFKLSQDDIKGIQKLYGKRSNSRKK | 0 µM/h | 0.2 µM/h | 0 µM/h | 2.4 µM/h | 0.2 µM/h | 2.5 µM/h | 1.8 µM/h |
| MMP-1 (protein) FVLTEGNPRWEQTHLTYRIENYTPDLPRADVDHAIEKAFQLWSNVTPLTFTKVSEGQADIMISFVRGDHRDNSPFDGPGGNLAHAFQPGPGIGGDAHFDEDERWTNNFREYNLHRVAAHELGHSLGLSHSTDIGALMYPSYTFSGDVQLAQDDIDGIQAIYGRSQNPVQPIGPQTPKACDSKLTFDAITTIRGEVMFFKDRFYMRTNPFYPEVELNFISVFWPQLPNGLEAAYEFADRDEVRFFKGNKYWAVQGQNVLHGYPKDIYSSFGFPRTVKHIDAALSEENTGKTYFFVANKYWRYDEYKRSMDPGYPKMIAHDFPGIGHKVDAVFMKDGFFYFFHGTRQYKFDPKTKRILTLQKANSWFNCRKN | 0 µM/h | 0.1 µM/h | 0 µM/h | 0 µM/h | 0 µM/h | 2.7 µM/h | 0 µM/h |
